Three molecules from patent US20140010757A1 (Stanford University, published 2014) can be followed below.

The target of experiment [1] is αvβ3 integrin on cells (U87MG glioblastoma cells; K562-αvβ3 cells) (UniProt P06756). The experiment is described as follows: competing off binding of ^125I-echistatin (U87MG cells).
The target of experiment [2] is T1, α5β1 integrin (detergent-solubilized) (UniProt P08648 42-1049; P05556 21-798).
T1 construct: Coated on microtiter plates; also called integrin α5β1
The experiment is described as follows: competition with ^125I-echistatin on plate-coated detergent-solubilized integrin.

In experiment [3] the target is T2, αvβ3 integrin on cells (U87MG glioblastoma cells; K562-αvβ3 cells) (UniProt P06756 31-1048; P05106 27-788).
T2 construct: whole, on cells; also called cell surface αvβ3 integrin
The experiment is described as follows: competition with ^125I-echistatin on U87MG cells.

No end group written: not given here.

Take WT (synthesized Agouti peptide): in experiment [1], the IC50 was 1400 nM.
QCESGPCCRNCKFLKEGTICKRARGDDMDDYCNGKTCDCPRNPHKGPAT (ligand, ends and bridges not checked; cysteine pairing not given here) [echistatin (unlabeled)]: in experiment [2], the binding result is on record as “binds”.

B1: ^64Cu-DOTA-7C AgRP engineered peptide (designed binder)
chain: GCVRLHESCLGQQVPCCDPAATCYCYGRGDNDLRCYCR
modifications: ends and bridges not checked; also: DOTA-64Cu label (site not given here)
notes: also called ^64Cu Labeled AgRP loop 4 RDG mutant (peptide 7C); labeled 7C
B1: the binding result in experiment [3] is “binds”.
